Measured values as given in patent US20170081400A1 (CEPHALON, published 2017).
Changes are numbered by the printed parent chain.

T1: human TL1A extracellular domain with N-terminal HIS and FLAG tag (human) (UniProt O95150)
T1 sequence: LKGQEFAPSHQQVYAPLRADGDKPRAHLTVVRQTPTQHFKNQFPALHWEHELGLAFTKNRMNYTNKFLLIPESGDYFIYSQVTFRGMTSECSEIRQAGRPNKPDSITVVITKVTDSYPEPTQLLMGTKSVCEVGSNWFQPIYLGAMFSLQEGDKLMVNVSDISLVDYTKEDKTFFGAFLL

T2: human TL1A extracellular domain with N-terminal HIS and FLAG tag (human, UniProt O95150 72-251)
T2 construct: the whole entry is named
T2 sequence: T1 sequence

B1: 320-313 (antibody, human IgG1, name in Kabat numbering, V domains shown)
VH: QVQLVQSGAEVKKPGASVKVSCKASGYTFTSYDINWVRQAPGQGLEWMGWLNPNSGNTGYAQKFQGRVTMTADRSTSTAYMELSSLRSEDTAVYYCAREVPETAAFEYWGQGTLVTVSS
VL: QSVLTQPPSVSGAPGQRVTISCTSSSSDIGAGLGVHWYQQLPGTAPKLLIEGYYNRPSGVPDRFSGSKSGTSASLTITGLLPEDEGDYYCHSYDGTLSALFGGGTKLTVLG
notes: human IgG1, lambda
B2: 320-314 (antibody, human IgG1, name in Kabat numbering, V domains shown)
VH: B1 VH
VL: B1 VL with H91K
notes: human IgG1, lambda
B3: 320-318 (antibody, human IgG1, name in Kabat numbering, V domains shown)
VH: B1 VH
VL: B1 VL with H91Q, S92A
notes: human IgG1, lambda
B4: 320-328 (antibody, human IgG1, name in Kabat numbering, V domains shown)
VH: B1 VH
VL: B1 VL with H91Q, Y93H
notes: human IgG1, lambda
B5: 320-326 (antibody, human IgG1, name in Kabat numbering, V domains shown)
VH: B1 VH
VL: B1 VL with H91Q, Y93S
notes: human IgG1, lambda
B6: 320-355 (antibody, human IgG1, name in Kabat numbering, V domains shown)
VH: B1 VH
VL: B1 VL with H91Q, T96L
notes: human IgG1, lambda
B7: 320-365 (antibody, human IgG1, name in Kabat numbering, V domains shown)
VH: B1 VH
VL: B1 VL with H91Q, S98Q
notes: human IgG1, lambda
B8: 320-356 (antibody, human IgG1, name in Kabat numbering, V domains shown)
VH: B1 VH
VL: B1 VL with H91Q, T96W
notes: human IgG1, lambda
B9: 320-349 (antibody, human IgG1, name in Kabat numbering, V domains shown)
VH: B1 VH
VL: B1 VL with H91Q, T96A
notes: human IgG1, lambda
B10: 320-369 (antibody, human IgG1, name in Kabat numbering, V domains shown)
VH: B1 VH
VL: B1 VL with H91Q, S98L
notes: human IgG1, lambda
B11: 320-364 (antibody, human IgG1, name in Kabat numbering, V domains shown)
VH: B1 VH
VL: B1 VL with H91Q, S98A
notes: human IgG1, lambda
B12: 320-350 (antibody, human IgG1, name in Kabat numbering, V domains shown)
VH: B1 VH
VL: B1 VL with H91Q, T96S
notes: human IgG1, lambda
B13: 320-353 (antibody, human IgG1, name in Kabat numbering, V domains shown)
VH: B1 VH
VL: B1 VL with H91Q, T96H
notes: human IgG1, lambda
B14: 320-348 (antibody, human IgG1, name in Kabat numbering, V domains shown)
VH: B1 VH
VL: B1 VL with H91Q, G95Y
notes: human IgG1, lambda
B15: 320-366 (antibody, human IgG1, name in Kabat numbering, V domains shown)
VH: B1 VH
VL: B1 VL with H91Q, S98D
notes: human IgG1, lambda
B16: 320-358 (antibody, human IgG1, name in Kabat numbering, V domains shown)
VH: B1 VH
VL: B1 VL with H91Q, L97A
notes: human IgG1, lambda
B17: 320-371 (antibody, human IgG1, name in Kabat numbering, V domains shown)
VH: B1 VH
VL: B1 VL with H91Q, S98Y
notes: human IgG1, lambda
B18: 320-359 (antibody, human IgG1, name in Kabat numbering, V domains shown)
VH: B1 VH
VL: B1 VL with H91Q, L97S
notes: human IgG1, lambda
B19: 320-351 (antibody, human IgG1, name in Kabat numbering, V domains shown)
VH: B1 VH
VL: B1 VL with H91Q, T96Q
notes: human IgG1, lambda
B20: 320-360 (antibody, human IgG1, name in Kabat numbering, V domains shown)
VH: B1 VH
VL: B1 VL with H91Q, L97Q
notes: human IgG1, lambda
B21: 320-346 (antibody, human IgG1, name in Kabat numbering, V domains shown)
VH: B1 VH
VL: B1 VL with H91Q, G95L
notes: human IgG1, lambda
B22: 320-367 (antibody, human IgG1, name in Kabat numbering, V domains shown)
VH: B1 VH
VL: B1 VL with H91Q, S98H
notes: human IgG1, lambda
B23: 320-352 (antibody, human IgG1, name in Kabat numbering, V domains shown)
VH: B1 VH
VL: B1 VL with H91Q, T96D
notes: human IgG1, lambda
B24: 320-354 (antibody, human IgG1, name in Kabat numbering, V domains shown)
VH: B1 VH
VL: B1 VL with H91Q, T96K
notes: human IgG1, lambda
B25: 320-370 (antibody, human IgG1, name in Kabat numbering, V domains shown)
VH: B1 VH
VL: B1 VL with H91Q, S98W
notes: human IgG1, lambda
B26: 320-357 (antibody, human IgG1, name in Kabat numbering, V domains shown)
VH: B1 VH
VL: B1 VL with H91Q, T96Y
notes: human IgG1, lambda
B27: 320-347 (antibody, human IgG1, name in Kabat numbering, V domains shown)
VH: B1 VH
VL: B1 VL with H91Q, G95W
notes: human IgG1, lambda
B28: 320-368 (antibody, human IgG1, name in Kabat numbering, V domains shown)
VH: B1 VH
VL: B1 VL with H91Q, S98K
notes: human IgG1, lambda

molecular target: T1, human TL1A extracellular domain with N-terminal HIS and FLAG tag (human); test: cell-based or functional assay

| Binder | Antibody IC50, TL1A induced caspase potency assay in TF-1 cells [µg/mL] | Fold improvement over 320-179, TL1A induced caspase potency assay in TF-1 cells [fold] |
| --- | --- | --- |
| B1 | 0.02 | 2 |
| B2 | 0.02 | 2 |
| B3 | 0.02 | 3 |
| B4 | 0.02 | 1 |
| B5 | 0.03 | 2 |

molecular target: T2, human TL1A extracellular domain with …; test: SPR Run 4, purified Ab captured on Protein A, TL1A 5 ug/mL, timepoint 44
Excerpt: (§1) 1.5. Antibody expression and antigen binding as determined by SPR. Using a CM5 sensor chip (GE Healthcare) Protein A (Pierce) was coupled to the chip surface using an amine coupling kit (GE Healthcare). Protein A was coupled on flow cell 1 and 2 (or alternatively 3 and 4) using a BIACORE® T200. […] The amount of supernatant or purified protein (as well as the concentration) injected during the capture stage varied between runs and is specified in the header of the Tables 3-11. At the end of injection of the supernatant or purified antibody the change in response units was measured. This value was reported as Capture Level in Tables 3-11. […] The response units were measured prior to the end of the dissociation phase. […] The sensorgrams were double referenced (flow cell 2 is subtracted from flow cell 1 and a buffer blank). As there were a large number of antibody variants to screen, these were screened across different runs (Tables 3-11). […] A summary of the conditions used in each run is below:
(§2) 2.1. […] In some experiment the antibodies were purified using Protein A chromatography (See 1.4) and purified antibodies were used in BIACORE® (GE Healthcare) experiments.

| Binder | TL1A Binding Level (Early) [RU] |
| --- | --- |
| B1 | 141 |
| B6 | 102 |
| B7 | 141 |
| B8 | 109 |
| B9 | 112 |
| B10 | 89 |
| B11 | 124 |
| B12 | 130 |
| B13 | 97 |
| B14 | 144 |
| B15 | 62 |
| B16 | 82 |
| B17 | 92 |
| B2 | 165 |
| B18 | 57 |
| B19 | 112 |
| B3 | 160 |
| B20 | 86 |
| B21 | 126 |
| B22 | 119 |
| B4 | 155 |
| B23 | 101 |
| B5 | 126 |
| B24 | 53 |
| B25 | 66 |
| B26 | 119 |
| B27 | 149 |
| B28 | 50 |

molecular target: T2, human TL1A extracellular domain with …; test: SPR Run 4, purified Ab captured on Protein A, TL1A 5 ug/mL, timepoint 220
Excerpt: as §1, §2

| Binder | TL1A Binding Level (Late) [RU] |
| --- | --- |
| B1 | 132 |
| B6 | 76 |
| B7 | 128 |
| B8 | 86 |
| B9 | 88 |
| B10 | 60 |
| B11 | 109 |
| B12 | 118 |
| B13 | 73 |
| B14 | 127 |
| B15 | 31 |
| B16 | 50 |
| B17 | 70 |
| B2 | 158 |
| B18 | 27 |
| B19 | 83 |
| B3 | 149 |
| B20 | 53 |
| B21 | 107 |
| B22 | 116 |
| B4 | 146 |
| B23 | 63 |
| B5 | 120 |
| B24 | 30 |
| B25 | 39 |
| B26 | 91 |
| B27 | 130 |
| B28 | 26 |
